Source: patent US10508143 (ALETA BIOTHERAPEUTICS, dated 2019)

Key:
[1] = biological target: T1, Human BCMA Protein, Fc Tag (R&D Systems, Cat#193-BC-050) (human, UniProt Q02223 1-54); assay: ELISA, plate-bound BCMA-Fc, anti-His-HRP
T1 construct: Bought; also called Human BCMA-Fc; not shown: Fc tag of the bought protein
T1 sequence (looked up): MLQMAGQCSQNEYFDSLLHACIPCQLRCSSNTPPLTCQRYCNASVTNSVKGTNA

[2] = biological target: T2, CD20 on stable transfectant line 293-CD20 (UniProt P11836 1-297); assay: flow cytometry on 293-CD20 cells, 200 µl fusion protein, FMC63-PE
T2 construct: whole, on cells; also called CD20 expressing 293 cells
T2 sequence (looked up): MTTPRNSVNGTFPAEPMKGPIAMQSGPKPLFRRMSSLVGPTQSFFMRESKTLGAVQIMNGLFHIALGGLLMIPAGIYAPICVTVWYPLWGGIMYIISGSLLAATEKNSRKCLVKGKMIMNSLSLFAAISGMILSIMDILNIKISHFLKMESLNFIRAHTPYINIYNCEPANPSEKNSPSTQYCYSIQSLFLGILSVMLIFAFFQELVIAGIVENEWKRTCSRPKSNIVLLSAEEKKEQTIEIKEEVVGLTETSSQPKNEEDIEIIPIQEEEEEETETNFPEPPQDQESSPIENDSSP

[3] = biological target: T2, CD20 on stable transfectant line …; assay: flow cytometry on 293-CD20 cells, anti-His-PE or FMC63-PE
[4] = biological target: T2, CD20 on stable transfectant line …; assay: flow cytometry on 293-CD20 cells, 200 µl fusion protein, anti-His-PE
[5] = biological target: T3, Human Her2/ErbB2 Protein, Fc Tag (ACRO Biosystems, Cat# HE2-H5253) (human, UniProt P04626 23-652); assay: ELISA: protein on FMC63-coated plate, Her2-Fc titrated, anti-hIgGFc-HRP
T3 construct: Bought; also called Her2-Fc; HER2-hFc; not shown: Fc tag of the bought protein

[6] = biological target: T2, CD20 on stable transfectant line …; assay: flow cytometry on 293-CD20 cells, FMC63-PE

B1: C11D5.3 scFv (VL/VH) (scFv)
scFv: DIVLTQSPPSLAMSLGKRATISCRASESVTILGSHLIHWYQQKPGQPPTLLIQLASNVQTGVPARFSGSGSRTDFTLTIDPVEEDDVAVYYCLQSRTIPRTFGGGTKLEIKGSTSGSGKPGSGEGSTKGQIQLVQSGPELKKPGETVKISCKASGYTFTDYSINWVKRAPGKGLKWMGWINTETREPAYAYDFRGRFAFSLETSASTAYLQINNLKYEDTATYFCALDYSYAMDYWGQGTSVTVSSGGGGSGGGGSGGGGSHHHHHH
notes: His-tagged; also called construct #89; #89
B1: binds [1].

B2: C11D5.3 scFv (VH/VL) (scFv)
scFv: QIQLVQSGPELKKPGETVKISCKASGYTFTDYSINWVKRAPGKGLKWMGWINTETREPAYAYDFRGRFAFSLETSASTAYLQINNLKYEDTATYFCALDYSYAMDYWGQGTSVTVSSGSTSGSGKPGSGEGSTKGDIVLTQSPPSLAMSLGKRATISCRASESVTILGSHLIHWYQQKPGQPPTLLIQLASNVQTGVPARFSGSGSRTDFTLTIDPVEEDDVAVYYCLQSRTIPRTFGGGTKLEIKGGGGSGGGGSGGGGSHHHHHH
notes: His-tagged; also called construct #90; #90
B2: binds [1].

B3: CD19-D1+2-C11D5.3 scFv (VL/VH) (scFv)
chain: PEEPLVVKVEEGDNAVLQCLKGTSDGPTQQLTWSRESPLKPFLKLSLGLPGLGIHMRPLAIWLFIFNVSQQMGGFYLCQPGPPSEKAWQPGWTVNVEGSGELFRWNVSDLGGLGCGLKNRSSEGPSSPSGKLMSPKLYVWAKDRPEIWEGEPPCLPPRDSLNQSLSQDLTMAPGSTLWLSCGVPPDSVSRGPLSWTHVHPKGPKSLLSLELKDDRPARDMWVMETGLLLPRATAQDAGKYYCHRGNLTMSFHLEITARPGGGGSGGGGSGGGGSGGGGSDIVLTQSPPSLAMSLGKRATISCRASESVTILGSHLIHWYQQKPGQPPTLLIQLASNVQTGVPARFSGSGSRTDFTLTIDPVEEDDVAVYYCLQSRTIPRTFGGGTKLEIKGSTSGSGKPGSGEGSTKGQIQLVQSGPELKKPGETVKISCKASGYTFTDYSINWVKRAPGKGLKWMGWINTETREPAYAYDFRGRFAFSLETSASTAYLQINNLKYEDTATYFCALDYSYAMDYWGQGTSVTVSSGGGGSGGGGSGGGGSHHHHHH
notes: His-tagged; also called construct #91; #91
B3: binds [1].

B4: CD19-D1+2-C11D5.3 scFv (VH/VL) (scFv)
chain: PEEPLVVKVEEGDNAVLQCLKGTSDGPTQQLTWSRESPLKPFLKLSLGLPGLGIHMRPLAIWLFIFNVSQQMGGFYLCQPGPPSEKAWQPGWTVNVEGSGELFRWNVSDLGGLGCGLKNRSSEGPSSPSGKLMSPKLYVWAKDRPEIWEGEPPCLPPRDSLNQSLSQDLTMAPGSTLWLSCGVPPDSVSRGPLSWTHVHPKGPKSLLSLELKDDRPARDMWVMETGLLLPRATAQDAGKYYCHRGNLTMSFHLEITARPGGGGSGGGGSGGGGSGGGGSQIQLVQSGPELKKPGETVKISCKASGYTFTDYSINWVKRAPGKGLKWMGWINTETREPAYAYDFRGRFAFSLETSASTAYLQINNLKYEDTATYFCALDYSYAMDYWGQGTSVTVSSGSTSGSGKPGSGEGSTKGDIVLTQSPPSLAMSLGKRATISCRASESVTILGSHLIHWYQQKPGQPPTLLIQLASNVQTGVPARFSGSGSRTDFTLTIDPVEEDDVAVYYCLQSRTIPRTFGGGTKLEIKGGGGSGGGGSGGGGSHHHHHH
notes: His-tagged; also called construct #92; #92
B4: binds [1].

B5: CD19-ECD-Leu16 scFv (VH/VL) (scFv)
chain: PEEPLVVKVEEGDNAVLQCLKGTSDGPTQQLTWSRESPLKPFLKLSLGLPGLGIHMRPLAIWLFIFNVSQQMGGFYLCQPGPPSEKAWQPGWTVNVEGSGELFRWNVSDLGGLGCGLKNRSSEGPSSPSGKLMSPKLYVWAKDRPEIWEGEPPCLPPRDSLNQSLSQDLTMAPGSTLWLSCGVPPDSVSRGPLSWTHVHPKGPKSLLSLELKDDRPARDMWVMETGLLLPRATAQDAGKYYCHRGNLTMSFHLEITARPVLWHWLLRTGGWKGGGGSGGGGSGGGGSGGGGSEVQLQQSGAELVKPGASVKMSCKASGYTFTSYNMHWVKQTPGQGLEWIGAIYPGNGDTSYNQKFKGKATLTADKSSSTAYMQLSSLTSEDSADYYCARSNYYGSSYWFFDVWGAGTTVTVSSGSTSGGGSGGGSGGGGSSDIVLTQSPAILSASPGEKVTMTCRASSSVNYMDWYQKKPGSSPKPWIYATSNLASGVPARFSGSGSGTSYSLTISRVEAEDAATYYCQQWSFNPPTFGGGTKLEIKHHHHHH
notes: C-terminal His tag; also called construct #63; #63
B5: binds [2].

B6: CD19-D1+2-Leu16 scFv (VH/VL) (scFv)
chain: PEEPLVVKVEEGDNAVLQCLKGTSDGPTQQLTWSRESPLKPFLKLSLGLPGLGIHMRPLAIWLFIFNVSQQMGGFYLCQPGPPSEKAWQPGWTVNVEGSGELFRWNVSDLGGLGCGLKNRSSEGPSSPSGKLMSPKLYVWAKDRPEIWEGEPPCLPPRDSLNQSLSQDLTMAPGSTLWLSCGVPPDSVSRGPLSWTHVHPKGPKSLLSLELKDDRPARDMWVMETGLLLPRATAQDAGKYYCHRGNLTMSFHLEITARPGGGGSGGGGSGGGGSGGGGSMAQVKLQESGAELVKPGASVKMSCKASGYTFTSYNMHWVKQTPGQGLEWIGAIYPGNGDTSYNQKFKGKATLTADKSSSTAYMQLSSLTSEDSADYYCARSNYYGSSYWFFDVWGQGTTVTVSSGGGGSGGGGSGGGGSDIELTQSPTILSASPGEKVTMTCRASSSVNYMDWYQKKPGSSPKPWIYATSNLASGVPARFSGSGSGTSYSLTISRVEAEDAATYYCQQWSFNPPTFGGGTKLEIKRAAAHHHHHH
notes: C-terminal His tag; also called construct #83; #83
B6: binds [3].

B7: CD22-D123-Leu16 scFv (VH/VL) (scFv)
chain: DSSKWVFEHPETLYAWEGACVWIPCTYRALDGDLESFILFHNPEYNKNTSKFDGTRLYESTKDGKVPSEQKRVQFLGDKNKACTLSIHPVHLNDSGQLGLRMESKTEKWMERIHLNVSERPFPPHIQLPPEIQESQEVTLTCLLNFSCYGYPIQLQWLLEGVPMRQAAVTSTSLTIKSVFTRSELKFSPQWSHHGKIVTCQLQDADGKFLSNDTVQLNVKHTPKLEIKVTPSDAIVREGDSVTMTCEVSSSNPEYTTVSWLKDGTSLKKQNTFTLNLREVTKDQSGKYCCQVSNDVGPGRSEEVFLQVQYAPEGGGGSGGGGSGGGGSGGGGSEVQLQQSGAELVKPGASVKMSCKASGYTFTSYNMHWVKQTPGQGLEWIGAIYPGNGDTSYNQKFKGKATLTADKSSSTAYMQLSSLTSEDSADYYCARSNYYGSSYWFFDVWGAGTTVTVSSGSTSGGGSGGGSGGGGSSDIVLTQSPAILSASPGEKVTMTCRASSSVNYMDWYQKKPGSSPKPWIYATSNLASGVPARFSGSGSGTSYSLTISRVEAEDAATYYCQQWSFNPPTFGGGTKLEIKHHHHHH
notes: First three domains of CD22 (further mutated) fused to Leu16 scFv, C-terminal His tag; also called construct #65; #65
B7: binds [4].

B8: purified CD19 protein control (other, UniProt P15391 20-291, looked up)
chain: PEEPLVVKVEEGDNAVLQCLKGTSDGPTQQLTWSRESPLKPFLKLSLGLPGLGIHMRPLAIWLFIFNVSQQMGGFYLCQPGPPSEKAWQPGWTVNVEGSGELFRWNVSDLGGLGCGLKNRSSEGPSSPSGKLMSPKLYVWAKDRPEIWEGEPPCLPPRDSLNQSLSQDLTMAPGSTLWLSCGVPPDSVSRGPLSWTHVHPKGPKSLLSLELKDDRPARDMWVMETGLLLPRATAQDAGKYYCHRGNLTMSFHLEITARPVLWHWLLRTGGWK
B8: no binding [5].

B9: CD19-D1+2-Leu16 scFv (VL/VH) (scFv)
chain: PEEPLVVKVEEGDNAVLQCLKGTSDGPTQQLTWSRESPLKPFLKLSLGLPGLGIHMRPLAIWLFIFNVSQQMGGFYLCQPGPPSEKAWQPGWTVNVEGSGELFRWNVSDLGGLGCGLKNRSSEGPSSPSGKLMSPKLYVWAKDRPEIWEGEPPCLPPRDSLNQSLSQDLTMAPGSTLWLSCGVPPDSVSRGPLSWTHVHPKGPKSLLSLELKDDRPARDMWVMETGLLLPRATAQDAGKYYCHRGNLTMSFHLEITARPGGGGSGGGGSGGGGSGGGGSDIELTQSPTILSASPGEKVTMTCRASSSVNYMDWYQKKPGSSPKPWIYATSNLASGVPARFSGSGSGTSYSLTISRVEAEDAATYYCQQWSFNPPTFGGGTKLEIKRGGGGSGGGGSGGGGSMAQVKLQESGAELVKPGASVKMSCKASGYTFTSYNMHWVKQTPGQGLEWIGAIYPGNGDTSYNQKFKGKATLTADKSSSTAYMQLSSLTSEDSADYYCARSNYYGSSYWFFDVWGQGTTVTVSSAAAHHHHHH
notes: C-terminal His tag; also called construct #85; #85
B9: no binding (tested: 200 µl fusion protein) [6].
